Results reported in article PMC8215385, “Design of a Proteolytically Stable Sodium-Calcium Exchanger 1 Activator Peptide for In Vivo Studies” (Frontiers in Pharmacology, 2021).
Non-standard residues stand in square brackets, D forms with d. No end group written: not given here. *: point of attachment. Biotin = O=C1N[C@H]2[C@H](CS[C@H]2CCCCC(=O)*)N1; NMePro = CN1CCC[C@H]1C(=O)*; Ahx = NCCCCCC(=O)O

B1: NOPT-TAT (peptide)
peptide: [NMePro]YKEIEQLIELANYQVRKKRRQRRR
notes: also called TAT-conjugated NOPT; cell-permeable NOPT; source: synthetic peptide (Genscript, >80% purity)
B2: biotin-ahx-pSer68-PLMcyt (peptide)
peptide: {Biotin-Ahx}-KRCRCKFNQQQRTGEPDEEEGTFRSSIRRLSSRRR
modifications: also: phosphoserine at Ser68 (numbering not mappable from notes)
notes: cytoplasmic part of phospholemman (PLM, FXYD1), printed as [residues removed]; Immobilised on SA chips (SPR) and used as overlay probe on the peptide arrays; also called biotin-pSer68-PLM; biotin-pSer68-PLMcyt; source: synthetic peptide (Genscript, >80% purity)

Experiments:
pSer68-PLMcyt = target: T1, pSer68-PLMcyt (Mus musculus, UniProt Q9Z239); test: Peptide array overlay with biotin-pSer68-PLM; type: binding; conditions: membrane-synthesized peptides overlaid with 5 μM biotin-pSer68-PLM, anti-biotin-HRP
T1 construct: purchased Genscript; host or cells: synthetic peptide
T1 sequence (Q9Z239 58-92 limits assumed): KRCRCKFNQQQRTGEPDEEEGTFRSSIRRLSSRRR
Source text: Peptides on cellulose membranes were synthesized using a Multipep automated peptide synthesizer (INTAVIS Bioanalytical Instruments AG, Koeln, Germany) ([Frank, 1992], [Frank, 2002]). Peptides in solution were synthesized (listed below) at >80% purity by Genscript (Corporation, Piscataway, NJ, United States). For some of the peptides a cell-permeable TAT ([…]) or a biotin tag was included at either N- or C-terminus with or without an ahx-linker in between to avoid any potential steric hindrance.
Peptide array membranes were blocked in 1% casein for 2–4 h and overlaid with 5 μM of biotinylated pSer68-PLM peptide in 1% casein overnight at 4°C. The membranes were then washed three times for 10 min in TBS-T before incubation with anti-biotin-horseradish peroxidase (HRP) for 1 h (see Antibodies and Recombinant Protein). Peptide-bound spots were detected as described in the immunoblotting section.

NCX1 = test: NCX activity (NCX rate constant, 1/τcaff) in isolated adult cardiomyocytes; type: cell-based, mouse; conditions: 1 μM, vs TAT-tagged scrambled control
Method: 8 weeks old C57BL6/J mice were randomized to SHAM or an aortic banding (AB) operation using o-rings (ORAB) as previously described ([Melleby et al., 2018]). Mice were anesthetized in a combination of 5% isoflurane and 95% O2, before endotracheal intubation and ventilation using a MiniVent rodent ventilator (Harvard Apparatus, United States). Left sided hemothoracotomy in the third intercostal space was performed, before dissection and placement of the o-ring around the ascending aorta. Animals were allowed to recover, and post-operative analgesia was achieved by injections of buprenorphine in accordance with the institutional guidelines. […]
(§1) Isolated cardiomyocytes were loaded for 10 min with 5 μM fluo-4 AM ester (Molecular Probes, Eugene, OR, United States) at RT. […] Whole-cell Ca^2+ transients were recorded in field stimulated cardiomyocytes at 0.5 Hz (2.5 ms bipolar pulses) and 37°C with Cairn Research Optoscan Monochromator (excitation 485 nm, emission 515 nm long pass) (Cairn Research Ltd., United Kingdom). Regular Ca^2+ transients were recorded for at least 3 min per cell, before the field stimulation was stopped and 10 mM caffeine was added. Background fluorescence was recorded for each cell. […] The NCX rate constant was calculated as: 1/τcaff ([Díaz et al., 1997]), as the non SERCA2, non-NCX mediated Ca^2+ removal was considered negligible.

[1] = test system: adult mouse cardiomyocytes; test: Ca2+ transients and SR Ca2+ load in isolated adult cardiomyocytes; type: cell-based; conditions: 1 μM, vs scrambled control
Method: 8 weeks old C57BL6/J mice were randomized to SHAM or an aortic banding (AB) operation using o-rings (ORAB) as previously described ([Melleby et al., 2018]). Mice were anesthetized in a combination of 5% isoflurane and 95% O2, before endotracheal intubation and ventilation using a MiniVent rodent ventilator (Harvard Apparatus, United States). Left sided hemothoracotomy in the third intercostal space was performed, before dissection and placement of the o-ring around the ascending aorta. Animals were allowed to recover, and post-operative analgesia was achieved by injections of buprenorphine in accordance with the institutional guidelines. Animal experiments was approved by the Norwegian National Animal Research Committee (FDU 7040).
Cardiomyocytes were isolated based on a similar protocol as recently described ([Ackers-Johnson et al., 2016]). Mice were anesthetized and mask ventilated with a combination of 3% isoflurane and 97% O2. Deep surgical anesthesia was confirmed by abolished pain reflexes. […] Then 7 ml of buffer A (in mM: HEPES 25, NaCl 130, KCl 5.4, NaH2PO4 0.4, MgCl2 0.5, D-glucose 22, pH 7.4) with 5 mM EDTA was injected into the right ventricle. Thereafter, the aorta was clamped and the heart was excised. 10 ml of the buffer solution and thereafter 3 ml of the buffer solution without EDTA were injected into the left ventricle over 2–5 min. Then preheated solution A containing 0.8 mg/ml collagenase II was injected into the left ventricle over ∼20 min. The atria and right ventricle were removed, and the cardiomyocytes were isolated according to the same procedure as described for the Langendorff-based isolation of rat cardiomyocytes (described further below).
as §1, with “RT. The superfusate contained (mM): NaCl 140, HEPES 5, KCl 5.4, CaCl2 1, MgCl2 0.5, D-glucose 5.5 and NaH2PO4 0.4. The pH was adjusted to 7.4.” for “RT.”, “cell. Ca^2+ transients amplitude and SR Ca^2+ load was calculated as maximal fluorescence (F) divided on resting fluorescence (F0) on field stimulated and caffeine evoked Ca^2+ transients, respectively (See Figure 4I for illustration of protocol details).” for “cell.”

biotin-ahx-pSer68-PLMcyt [2] = target: B2; test: SPR; Biacore X100; biotinylated pSer68-PLMcyt or PLMcyt immobilised on SA chip (~50-200 RU); His-TF-NCX1cyt dialysed into running buffer injected at a range of concentrations (single cycles), 30 or 100 ul/min, 180 s, dissociation 600 s; 1:1 (Langmuir) fit
biotin-ahx-PLMcyt = test: as above
biotin-ahx-pSer68-PLMcyt [3] = target: B2; test: SPR; conditions: both partners purified
[4] = target: T2, OPT with three amino acids deleted at its N-terminus; test: peptide or protein array; peptides spot-synthesised on cellulose membranes, blocked in 1% casein, overlaid with 5 uM biotinylated pSer68-PLM peptide in 1% casein overnight at 4°C; detected with anti-biotin-HRP; conditions: both partners purified
T2 construct: source: synthetic peptide, spot-synthesised on cellulose membrane
T2 peptide: YKEIEQLIELANYQVLS

[5] = target: T3, OPT with two amino acids deleted at its C-terminus; test: as above; conditions: both partners purified
T3 construct: C-terminus'; source: synthetic peptide, spot-synthesised on cellulose membrane
T3 peptide: YHPYKEIEQLIELANYQV

mini-OPT = target: T4, mini-OPT; test: as above; conditions: both partners purified
T4 construct: residues 3-18 of OPT; source: synthetic peptide, spot-synthesised on cellulose membrane
T4 peptide: PYKEIEQLIELANYQV

E6G: E6G substitution of mini-OPT on the peptide array; negative control in pull down (PYKEIGQLIELANYQV)
pSer68-PLM binding on peptide array (pSer68-PLMcyt): abolished pSer68-PLM binding

Y14A: Y14A substitution of mini-OPT on the peptide array; negative control in pull down (PYKEIEQLIELANAQV)
pSer68-PLM binding on peptide array (pSer68-PLMcyt): abolished pSer68-PLM binding

NOPT-TAT: NOPT made cell permeable by addition of a TAT tag to its C-terminus ([NMePro]YKEIEQLIELANYQVRKKRRQRRR)
increase of NCX1 activity (NCX1 rate constant) (NCX1; cardiomyocytes from SHAM-operated mice, 10–13 cells from three mice): approximately 40% | increase of NCX1 activity (NCX1 rate constant) (NCX1; cardiomyocytes from aorta banded HF mice, 6–7 cells from three mice): approximately 60% | Ca2+ transient amplitude ([1]; HF cardiomyocytes): did not change | sarcoplasmic reticulum (SR) Ca2+ load ([1]; HF cardiomyocytes): did not change | Ca2+ transient amplitude ([1]; SHAM cardiomyocytes): did not change | sarcoplasmic reticulum (SR) Ca2+ load ([1]; SHAM cardiomyocytes): did not change

PYKEIEQLIELANYQV [mini-OPT]
pSer68-PLM binding on peptide array (pSer68-PLMcyt): minimum sequence that was required to bind pSer68-PLMcyt

HIS-TF-NCX1cyt (domain or fragment)
Kd (biotin-ahx-pSer68-PLMcyt [2]): 4.3 nM | koff (biotin-ahx-pSer68-PLMcyt [2]): 0.0011 s⁻¹ | kon (biotin-ahx-pSer68-PLMcyt [2]): 380000 M⁻¹ s⁻¹ | Kd (biotin-ahx-PLMcyt): 4.1 nM | koff (biotin-ahx-PLMcyt): 0.004 s⁻¹ | kon (biotin-ahx-PLMcyt): 1.1e+06 M⁻¹ s⁻¹

B1
Kd (biotin-ahx-pSer68-PLMcyt [3]): 129 nM

B2
binding result [4]: binds | binding result [5]: binds | binding result (mini-OPT): binds
